This test addresses EGFR Kinase Domain Duplication (EGFR-KDD), eGFP or mCherry fusion (human) (UniProt P00533). Nature of the test: PIE-FCCS (pulsed interleaved excitation fluorescence cross-correlation spectroscopy); live COS-7 cells co-expressing eGFP and mCherry fusions (1:1 plasmids), peripheral membrane, 37 °C, Opti-MEM; stimulated with 2 μg/mL recombinant human EGF; median fraction correlated (ƒc).

As to “EGFR Kinase Domain Duplication (EGFR-KDD), eGFP or mCherry fusion (from UniProt P00533 25-1038; P00533 688-1210) (receptor)”, the median cross-correlation value (ƒc) is 0.17.

These data come from publication PMC7925532.
